Results on two molecules are retold here after publication PMC6895265.

The target of this data set is TCF4 bHLH domain (Homo sapiens, UniProt P15884 565-624). Description: ITC. A general note: Isothermal titration calorimetry measures the heat released or taken up as one component is titrated into another.
TCF4 bHLH domain, sequence (P15884 565-624): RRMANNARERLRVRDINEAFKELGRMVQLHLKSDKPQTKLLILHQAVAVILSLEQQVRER

B1: 12-mer TA-flanked, X=M (dsDNA)
DNA 1: ATACACGTGTAT
DNA 2: ATACACGTGTAT
modifications: 5mC at C4 and C6 of both strands
As to B1, the binding result was “no binding”.

B2: 12-mer TA-flanked, X=H (dsDNA)
DNA 1: ATACACGTGTAT
DNA 2: ATACACGTGTAT
modifications: 5hmC at C4 and C6 of both strands
For the molecule B2, the binding result was “no binding”.
